The record followed here is patent US20090155236A1, “Peptide sequence for modulation of delta protein kinase c” (NATIONAL INSTITUES OF HEALTH (NIH), U.S. DEPT OF HEALTH AND …, priority 2004, published 2009).

This test concerns the target recombinant full-length delta PKC (rat). Nature of the test: ELISA, both in the absence and in the presence of calcium. Background: ELISA stands for enzyme-linked immunosorbent assay.

B1: annexin I (protein)
chain: AMVSEFLKQAWFIENEEQEYVQTVKSSKGGPGSAVSPYPTFNPSSDVAALHKAIMVKGVDEATIIDILTKRNNAQRQQIKAAYLQETGKPLDETLKKALTGHLEEVVLALLKTPAQFDADELRAAMKGLGTDEDTLIEILASRTNKEIRDINRVYREELKRDLAKDITSDTSGDFRNALLSLAKGDRSEDFGVNEDLADSDARALYEAGERRKGTDVNVFNTILTTRSYPQLRRVFQKYTKYSKHDMNKVLDLELKGDIEKCLTAIVKCATSKPAFFAEKLHQAMKGVGTRHKALIRIMVSRSEIDMNDIKAFYQKMYGISLCQAILDETKGDYEKILVALCGGN
For B1, the percent binding was determined as 70%.
